# “Also recorded” adds a separate entry of the source.
# Legend:
# [1] = system: linoleic acid hydro peroxide (LOOH); test: AOS activity assay: degradation of linoleic hydroperoxide (LOOH) followed at 234 nm; assay type: biochemical, guayule
# Method: A difference spectra of this extract clearly indicated a characteristic peak at 450 nm (arrow, FIG. 6C). […] This substrate was prepared according to Zimmerman (Zimmerman, Biochem. Biophys. Res. Comm. 23:398-403 (1966); Zimmerman and Feng, Lipids 13:313-316 (1978); Zimmerman and Vick, Plant. Physiol. 46:445-453 (1970)).
# (1991) and Zimmerman, op cit. (1966); Zimmerman and Vick, op cit. (1970) and Zimmerman and Feng, op cit. (1978)
# [2] = Prenyltransferase activity: incorporation of 14C-isopentenyl pyrophosphate into isoprenoid derivatives, TLC; assay type: biochemical, guayule; conditions: CHAPS-solubilized, filtered RPP; DMAPP as initiator; 100 μl aliquots
# Method: Biochemical analyses were performed on RPP purified from rubber particles. Three-times-washed rubber particles were prepared by centrifugation according to Cornish and Backhaus, op cit. (1990) from a crude homogenate of guayule stembark. […] Prenyltransferase activity was determined for each purification step by measuring the incorporation of ^14 C-isopentenyl pyrophosphate into isoprenoid derivatives that were analyzed by TLC (benzene/ethyl acetate, 90/10) and autoradiography (Dogbo and Camara, Plant Sci. 49: 103-109 (1987); Kuntz et al., Plant J. 2:25-34 (1992)). Dimethylallyl pyrophosphate (DMAPP) was used as the initiator to measure activity in 100 μl aliquots of proteins from each of the three steps (FIG. 6B, lanes 1-3). […] However, prenyltransferase activity was present in both the crude homogenate and washed preparations containing rubber particles (cf. FIG. 6B, lane 3 with lanes 1 and 2). […]
# Washed rubber particles were prepared by centrifugation according to Cornish and Backhaus, op cit.(1990) from a crude homogenate of guayule stembark. […] Prenyltransferase activity was determined for each purification step by measuring the incorporation of ^14 C-isopentenyl pyrophosphate into isoprenoid derivatives according to Dogbo and Camara, op cit. […]
# [3] = system: linoleic acid conjugated dienes; test: UV spectrophotometry of superoxide-induced linoleic acid conjugated dienes (A234); assay type: biochemical, guayule
# Method: Likewise, the effect of superoxide, produced by the riboflavin/TEMED mixture and light, on lipid peroxidation was determined. […] The mixture was exposed to light and scanned in a UV spectrophotometer at 200 to 300 nm at 10 sec intervals for 2 minutes and again at 5 and 10 min. The effect of AOS on superoxide-inducedlinoleic hydroperoxides was determined using partially pure AOS solubilized from fresh rubber particles using the CHAPS extraction and filtration procedure (Pan et al., J Biol Chem 270: 8487-8494, 1995), which removed all remaining rubber. One μg partially pure AOS was added to oxidized linoleic acid and UV scanned at 2 minute intervals.
# This mixture was scanned at A234 followed by addition of riboflavin/TEMED and exposure to 10 min. of light, to produce superoxide. The mixture was rescanned at 10 min intervals.
# [4] = system: tobacco leaf disks; test: Cell leakage analysis of leaf disks treated with methyl viologen; assay type: cell-based, tobacco cv. Samsun; conditions: transgenic AOS tobacco vs untransformed control; 1.2 μM methyl viologen
# Method: Transgenic cv. Samsun tobacco plants that […] AOS and untransformed cv. Samsun plants were gown in a growth chamber maintained at 28° C. and an irradiance of 500 μmole quanta per square meter per sec. at 16 hours per day. Leaf disks of transgenic plants (FIG. 20, disks 3, 6, 14 and 17) were compared with untransformed plants (FIG. 20, disk C) according to the general method set forth in Gupta et al., Proc. Natl. Acad. Sci. USA 90: 1629-1633 (1993).
# Leaf disks (2 cm^2) were collected from tobacco plants and placed in petri dishes (15×60 mm) containing 4 ml of a 1.2 μM methyl viologen (MV) solution and vacuum infiltrated for 5 min. MV values are means ±SD (n=4). The samples were incubated at 22° C. for 16 hours in darkness followed by illumination at 500 μM quanta per square meter per sec. for 2 hours. The leaf disks then were incubated for an additional 16 hours in darkness.
# The MV solution was collected for conductivity with leaf disks then was autoclaved for 10 min. at 121° C. The conductivity of the autoclaved solution was again measured. The present electrolyte leakage was determined by dividing the value of conductivity of MV solution by the value obtained after autoclaving.
# [5] = Backhaus et al. 1991; cited from earlier work
# [6] = system: lipid hydroperoxides; conditions: Hamberg 1987; cited from earlier work
molecule,measurement,setting,value
"RPP: polypeptide of 53,500 Daltons from guayule rubber particles; non-mono-oxygenase cytochrome P450 heme-binding protein, a species of allene oxide synthase (protein) MDPSSKPLREIPGSYGIPFFQPIKDRLEYFYGTGGRDEYFRSRMQKYQSTVFRANMPPGPFVSSNPKVIVLLDAKSFPILFDVSKVEKKDLFTGTYMPSTKLTGAYRVLSYLDPSEPRHAQLKNLLFFMLKNSSNRVIPQFETTYYELFEGLEAELAKNGKAAFNDVGEQAAFRFLGRAYFNSNPEETKLGTSAPTLISSWVLFNLAPTLDLGLPWFLQEPLLHTFRLPAFLIKSTYNKLYDYFQSVATPVMEQAEKLGVPKDEAVHNILFAVCFNTFGGVKILFPNTLKWIGVAGENLHTQLAEEIRGAIKSYGDGNVTLEAIEQMPLTKSVVYESLRIEPPVPPQYGKAKSNFTIESHDATFEVKKGEMLFGYQPFATKDPKVFDRPEEFVPDRFVGDGEALLKYVWWSNGPETESPTVENKQCAGKDFVVLITRLFVIELFRRYDSEIELGESPLGAAVTLTFLKRASI",AOS activity (LOOH degradation),[1]; UV spectra at 10 sec intervals,high AOS activity
same,time to complete disappearance of LOOH (234 nm peak),"[1]; enzyme preparation added to cuvette with LOOH, repetitive UV scans at 10 sec intervals",10 min
same,prenyltransferase activity,[2],complete absence of prenyltransferase activity; also recorded: synthesizes no isoprenes
same,A234 increase on exposure to light (superoxide) with AOS present,[3]; linoleic acid + riboflavin/TEMED + AOS,prevented the increase in A234
same,A234 (conjugated dienes) after AOS added to oxidized linoleic acid,"[3]; linoleic acid oxidized by riboflavin/TEMED in light, 1 μg partially pure AOS, listed as AOS",A234 decreased; also recorded: time-dependent disappearance of conjugated dienes
same,percent electrolyte leakage,[4],substantially less percent electrolyte leakage
same,"isoelectric point (pI), experimental value",[5],6.2
same,kcat,[6],> 1000 s⁻¹

# — patent US6132711A, “Enzymatic antioxidant of allene oxide for lipid peroxidation in biological systems” (Arizona Board of Regents, priority 1997, dated 2000)
